Source: publication PMC2726290, “Decoding of Methylated Histone H3 Tail by the Pygo-BCL9 Wnt Signaling Complex” (Molecular Cell, 2008)

Legend:
Experiment in all cases: ITC; protein dialysed into 100 mM NaCl, 25 mM Tris-HCl (pH 8.0), 10 uM ZnCl2, 2 mM beta-mercaptoethanol; histone peptides with free PHD or PHD-HD1 complex; one-site model
[1] = molecular target: dPHD-HD1 complex (Drosophila Pygo PHD 747-808 with Lgs HD1 316-350) (Drosophila) (UniProt Q9V9W8)
[2] = molecular target: hPHD-HD1 complex (hPygo1 PHD 333-402 with hBCL9 HD1) (human) (UniProt Q9Y3Y4)
Chain of hPHD-HD1 complex (hPygo1 PHD 333-402 with hBCL9 HD1) (human) (Q9Y3Y4 333-402, chain 1 of 2): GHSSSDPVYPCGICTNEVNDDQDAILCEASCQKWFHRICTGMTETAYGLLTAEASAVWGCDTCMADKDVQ
Chain of hPHD-HD1 complex (hPygo1 PHD 333-402 with hBCL9 HD1) (human) (O00512 177-205, chain 2 of 2, further chain): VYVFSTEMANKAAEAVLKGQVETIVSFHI

[3] = molecular target: hPygo1 PHD finger (amino acids 333-402), free (human) (UniProt Q9Y3Y4)
Chain of hPygo1 PHD finger (amino acids 333-402), free (human) (Q9Y3Y4 333-402): as the sequence (Q9Y3Y4 333-402, chain 1 of 2) above

Chain of dPHD-HD1 complex (Drosophila Pygo PHD 747-808 with Lgs HD1 316-350) (Drosophila) (Q9V9W8 747-808, chain 1 of 2): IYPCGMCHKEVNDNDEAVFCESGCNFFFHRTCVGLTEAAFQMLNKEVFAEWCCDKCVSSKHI
Chain of dPHD-HD1 complex (Drosophila Pygo PHD 747-808 with Lgs HD1 316-350) (Drosophila) (Q961D9 316-350, chain 2 of 2, further chain): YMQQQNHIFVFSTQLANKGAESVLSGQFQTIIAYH

| Kd [1] | Kd [2] | Kd [3] | Substance |
| --- | --- | --- | --- |
| 22 µM | 2.9 µM | 9 µM | H3K4me1 15-mer histone H3 tail peptide (from UniProt P68431 2-16) |
| 13 µM | 0.9 µM | 2.4 µM | H3K4me2 15-mer histone H3 tail peptide (from UniProt P68431 2-16) |
| 23 µM | – | – | H3K4me3 15-mer histone H3 tail peptide (from UniProt P68431 2-16) |
